Test results taken from US20230340419A1, “METHODS FOR GENERATION OF MOUSE AND HUMAN URETERIC BUD ORGANOIDS AND COLLECTING DUCT ORGANOIDS” (University of Southern California, priority 2020, published 2023).

B1: GDNF: glial cell-derived neurotrophic factor (protein, UniProt P39905 78-211, looked up)
Glial cell line-derived …: SPDKQMAVLPRRERNRQAAAANPENSRGKGRRGQRGKNRGCVLTAIHLNVTDLGLGYETKEELIFRYCSGSCDAAETTYDKILKNLSRNRRLVSDKVGQACCRPIAFDDDLSFLDDNLVYHILRKHSAKRCGCI
B2: BMP7: growth factor tested in screening (protein, UniProt P18075 293-431, looked up)
Bone morphogenetic protein 7: STGSKQRSQNRSKTPKNQEALRMANVAENSSSDQRQACKKHELYVSFRDLGWQDWIIAPEGYAAYYCEGECAFPLNSYMNATNHAIVQTLVHFINPETVPKPCCAPTQLNAISVLYFDDSSNVILKKYRNMVVRACGCH
B3: FGF8: member of the FGF family (protein, UniProt P55075 23-233, looked up)
Fibroblast growth factor 8: QEGPGRGPALGRELASLFRAGREPQGVSQQHVREQSLVTDQLSRRLIRTYQLYSRTSGKHVQVLANKRINAMAEDGDPFAKLIVETDTFGSRVRVRGAETGLYICMNKKGKLIAKSNGKGKDCVFTEIVLENNYTALQNAKYEGWYMAFTRKGRPRKGSKTRQHQREVHFMKRLPRGHHTTEQSLRFEFLNYPPFTRSLRGSQRTWAPEPR
B4: FGF10: member of the FGF family (protein, UniProt O15520 38-208, looked up)
Fibroblast growth factor 10: QALGQDMVSPEATNSSSSSFSSPSSAGRHVRSYNHLQGDVRWRKLFSFTKYFLKIEKNGKVSGTKKENCPYSILEITSVEIGVVAVKAINSNYYLAMNKKGKLYGSKEFNNDCKLKERIEENGYNTYASFNWQHNGRQMYVALNGKGAPRRGQKTRRKNTSAHFLPMVVHS
B5: R-Spondin 1: UBCM component (protein, UniProt Q2MKA7 21-263, looked up)
R-spondin-1: SRGIKGKRQRRISAEGSQACAKGCELCSEVNGCLKCSPKLFILLERNDIRQVGVCLPSCPPGYFDARNPDMNKCIKCKIEHCEACFSHNFCTKCKEGLYLHKGRCYPACPEGSSAANGTMECSSPAQCEMSEWSPWGPCSKKQQLCGFRRGSEERTRRVLHAPVGDHAACSDTKETRRCTVRRVPCPEGQKRRKGGQGRRENANRNLARKESKEAGAGSRRRKGQQQQQQQGTVGPLTSAGPA
B6: FGF4: member of the FGF family (protein, UniProt P08620 31-206, looked up)
Fibroblast growth factor 4: APTAPNGTLEAELERRWESLVALSLARLPVAAQPKEAAVQSGAGDYLLGIKRLRRLYCNVGIGFHLQALPDGRIGGAHADTRDSLLELSPVERGVVSIFGVASRFFVAMSSKGKLYGSPFFTDECTFKEILLPNNYNAYESYKYPGMFIALSKNGKTKKGNRVSPTMKVTHFLPRL

How the values were obtained:
Assay type in all cases: cell-based, mouse
Wnt11-RFP UB organoid [1] = experiment: Withdrawal of individual components from UBCM (Stage IV validation); conditions: component withdrawn from UBCM
From the text: To determine whether UBCM culture conditions enabled clonal growth from a single UPC, dissociated E11.5 UBs were embedded at clonal density in Matrigel and cultured in UBCM medium. Around 30% of the single cells self-organized into E11.5 UB-like budding structures within 5 days, though a smaller percentage (3-5%) maintained Wnt11-RFP (FIG. 1G), an efficiency similar to clonal organoid formation for Lgr5^+ intestinal stem cells. Importantly, the clonally-derived Wnt11-RFP^+ budding structures were identical to intact E11.5 UB-derived organoids in both branching morphology and growth rate (Table 3, FIG. 1H).
Lastly, in Stage IV, we asked whether each of the components in UBCM was essential.

UB organoids = experiment: 2nd round of CD differentiation condition screening (qRT-PCR of Aqp2 and Foxi1); conditions: qRT-PCR, 7 days, under hBI+FGF9+Y27632 condition
Procedure: The functions of the mature renal CD system are carried out by two major cell populations that are intermingled throughout the entire CD network. The more abundant principal cells (PCs) concentrate the urine and regulate Na^+/K^+ homeostasis via water and Na^+/K^+ transporters. The less abundant α- and β-intercalated cells (ICs) regulate normal acid-base homeostasis via secretion of H^+ or HCO3^− into the urine. The absence of an in vitro system recapitulating PC and IC development in an appropriate 3D context, constrains physiological exploration, disease modeling and drug screening on the renal CD system. With this limitation in mind, we developed a screen to establish conditions supporting the differentiation of CD organoids, assaying expression of Aqp2 and Foxi1, definitive markers for PC and IC lineages, respectively, by quantitative reverse transcription PCR (qRT-PCR), following 7 days of culture under variable but defined culture conditions (FIG. 2A).
Agonists or antagonists targeting major developmental pathways (e.g. TGF-β, BMP, Wnt, FGF, Hedgehog and Notch) were tested, together with hormonal inputs known to regulate PC or IC activity (aldosterone and vasopressin).

Wnt11-RFP UB organoid [2] = experiment: Stage III 1st round screening of growth factors and small molecules for UB organoid culture condition; conditions: reagent added to FGF9 + C3 + TTNPB + GDNF; compared to that control group
From the text: We employed this Wnt11-RFP reporter system as a readout to screen for a culture condition that maintained the progenitor identity of UPCs in vitro. T-shaped UBs were manually isolated from E11.5 kidneys of Wnt11-RFP mice, and immediately embedded into Matrigel to set up a 3D culture platform that supported epithelial branching. In this 3D culture format, built on previous efforts towards the ex vivo culture of UB, hundreds of different combinations of growth factors and small molecules were tested (see also the Materials and Techniques section below for details under subheading “Screening for optimal UB culture condition”).
We systematically screened the optimal UB culture condition in four different stages (Stages I-IV).
In Stage III, based on the optimized recipe consisting of FGF9, TTNPB, CHIR99021 (3 μM) and GDNF, we preformed our 1st round of screening of growth factors and small molecules targeting major developmental pathways (e.g. TGF-β, BMP, Wnt, FGF, Hedgehog and Notch) and others. The branching morphogenesis, growth rate and Wnt11-RFP were recorded as readouts (Table 1). […] Representative images were taken at least for LDN193189, A83-01, and R-Spondin 1. These individual hits were then subjected to a 2nd round of screening to test their effects in various combinations, eventually leading to the identification of the optimal UB progenitor culture medium UBCM consisting of FGF9, TTNPB, CHIR99021 (3 μM), GDNF, LDN193189, A83-01, R-Spondin1, JAKI and SB202190.

| Molecule | Wnt11-RFP (Wnt11-RFP UB organoid [2]) | further results |
| --- | --- | --- |
| B1 |  | Effect of withdrawal of the component from UBCM on organoid growth (Wnt11-RFP UB organoid [1]): growth arrest |
| B2 | Better | Aqp2 expression (UB organoids): dramatically increased; Foxi1 expression (UB organoids): dramatically increased |
| B3 | Worse |  |
| B4 | Worse | Organoid growth (Wnt11-RFP UB organoid [2]): Slower |
| B5 | Better |  |
| B6 | Worse |  |
